Publication PMC4780012, “SmMYC2a and SmMYC2b played similar but irreplaceable roles in regulating the biosynthesis of tanshinones and phenolic acids in Salvia miltiorrhiza”

B1: Wild-type HCT6 (dsDNA)
DNA 1: AAGCCTAAAGCTCACATGGCTGCTAAACCT
DNA 2: AGGTTTAGCAGCCATGTGAGCTTTAGGCTT
B2: m-HCT6 (dsDNA)
DNA 1: AAGCCTAAAGCTTTTTTTGCTGCTAAACCT
DNA 2: AGGTTTAGCAGCAAAAAAAGCTTTAGGCTT
B3: Wild-type CYP98A14 (dsDNA)
DNA 1: ATTAGTGATTAACACGTGCACATTTATTAA
DNA 2: TTAATAAATGTGCACGTGTTAATCACTAAT

Key:
[1] = target: SmMYC2a-His (Salvia miltiorrhiza, UniProt A0A088SC56 1-602); assay: EMSA; EMSA: 2 ug purified protein with 2 ug 3'-biotin probe, room temperature, 10 min; buffer, salt and pH not stated; details: protein: recombinant; tags: His (text: C-terminal, cleavable; pET32a vector, BamHI/HindIII); chain copies: 2; label: 3' biotin; blunt
Chain of SmMYC2a-His (A0A088SC56 entry or part of it): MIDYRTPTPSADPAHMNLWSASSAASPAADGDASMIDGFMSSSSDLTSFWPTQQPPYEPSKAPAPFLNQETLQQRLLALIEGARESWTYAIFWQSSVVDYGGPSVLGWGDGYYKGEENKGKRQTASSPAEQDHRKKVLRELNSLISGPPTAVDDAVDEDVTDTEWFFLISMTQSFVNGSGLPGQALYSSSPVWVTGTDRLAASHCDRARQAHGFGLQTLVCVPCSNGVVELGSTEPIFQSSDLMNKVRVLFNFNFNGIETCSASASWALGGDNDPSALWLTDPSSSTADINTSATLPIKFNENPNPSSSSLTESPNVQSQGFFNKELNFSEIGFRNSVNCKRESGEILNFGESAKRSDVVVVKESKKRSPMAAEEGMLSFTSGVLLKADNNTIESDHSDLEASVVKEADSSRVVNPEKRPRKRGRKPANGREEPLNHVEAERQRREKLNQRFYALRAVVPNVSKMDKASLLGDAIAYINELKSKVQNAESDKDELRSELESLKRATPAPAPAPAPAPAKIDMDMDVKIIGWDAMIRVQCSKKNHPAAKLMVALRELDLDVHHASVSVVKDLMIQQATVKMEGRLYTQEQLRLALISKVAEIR

[2] = target: SmMYC2b-His (Salvia miltiorrhiza, UniProt UPI0025AD73A7 1-607); assay: as above; details: protein: recombinant; tags: His (text: C-terminal, cleavable; pET32a vector, EcoRV/SalI); chain copies: 2; label: 3' biotin; blunt
Chain of SmMYC2b-His (chain, as listed by the source): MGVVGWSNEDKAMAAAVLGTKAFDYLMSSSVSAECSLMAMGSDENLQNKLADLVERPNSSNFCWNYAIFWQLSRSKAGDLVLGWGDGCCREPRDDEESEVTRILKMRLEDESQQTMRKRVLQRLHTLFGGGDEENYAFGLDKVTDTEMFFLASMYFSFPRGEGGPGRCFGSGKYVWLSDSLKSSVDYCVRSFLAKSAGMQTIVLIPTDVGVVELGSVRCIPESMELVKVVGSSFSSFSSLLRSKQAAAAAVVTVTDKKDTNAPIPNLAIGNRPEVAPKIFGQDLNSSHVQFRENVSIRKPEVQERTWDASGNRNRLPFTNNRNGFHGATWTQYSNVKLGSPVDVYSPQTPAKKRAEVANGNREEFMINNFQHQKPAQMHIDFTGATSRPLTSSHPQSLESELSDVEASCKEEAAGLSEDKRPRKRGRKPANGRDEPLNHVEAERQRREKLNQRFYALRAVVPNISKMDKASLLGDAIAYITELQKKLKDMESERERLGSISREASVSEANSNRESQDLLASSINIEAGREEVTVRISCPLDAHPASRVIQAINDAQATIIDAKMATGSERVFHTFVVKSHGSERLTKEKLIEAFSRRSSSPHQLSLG

Binder | binding result [1] | binding result [2]
B1 | binds | 
B2 | no binding | 
B3 | binds | binds
